Measurements: US20240109859

Molecular target: T1, IRF3 wild-type (UniProt Q14653 Q14653:1-427)
T1 sequence: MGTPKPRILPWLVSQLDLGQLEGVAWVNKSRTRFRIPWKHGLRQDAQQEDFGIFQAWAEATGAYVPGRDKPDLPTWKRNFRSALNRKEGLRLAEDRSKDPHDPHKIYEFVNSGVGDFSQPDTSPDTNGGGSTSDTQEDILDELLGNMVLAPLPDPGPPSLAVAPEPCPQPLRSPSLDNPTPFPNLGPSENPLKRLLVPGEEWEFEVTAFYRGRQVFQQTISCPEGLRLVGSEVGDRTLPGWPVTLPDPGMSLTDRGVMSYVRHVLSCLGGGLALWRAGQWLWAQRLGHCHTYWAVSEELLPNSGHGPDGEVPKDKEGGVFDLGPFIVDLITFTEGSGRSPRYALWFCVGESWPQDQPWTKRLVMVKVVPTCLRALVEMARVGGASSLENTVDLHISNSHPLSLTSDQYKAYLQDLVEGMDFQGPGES
Experiment: EMSA; 2.5 nM probe, 10 mM Tris pH 7.5, 50 mM NaCl, 2 mM DTT, room temperature 45 min; cold probe competition
Settings: tags: Flag, expressed in HEK293T; label: 32P
Procedure: Electrophoresis Mobility Shift Assay (EMSA). Flag-IRF3-WT and Flag-IRF3-N85D were purified from HEK293T cells. Binding reactions were carried out in 20 μl volumes containing: 2.5 nM P32 labeled DNA probe targeting IFN-β promoter (forward: […] (SEQ ID NO: 41); reverse: […]) (SEQ ID NO: 42); 10 mM Tris pH 7.5; 50 mM NaCl; 2 mM DTT and indicated purified Flag-IRF3-WT or Flag-IRF3-N85D. Unlabeled probe (cold probe) was used for competition assay. Reactions were incubated at room temperature for 45 min, and resolved in 6% polyacrylamide gels (29:1 crosslinking) with 0.5×TBE running buffer at […] on ice until the loading dye front reached the bottom of the gel. Gels were dried and analyzed using phosphorimaging instrumentation.

B1: IFN-beta promoter probe (dsDNA)
DNA 1: GCACCGCTAACCGAAACCGAAACTGTGC
DNA 2: GCACAGTTTCGGTTTCGGTTAGCGGTGC
binding result: binds
